How the values were obtained:
[1] = target: FGF receptor 2b (FGFR2b) naturally expressed on 4MBr-5 rhesus monkey bronchial epithelial cells (rhesus monkey); experiment: cell-based or functional assay
[2] = target: FGFR2 receptor endogenously expressed on mammary adenocarcinoma MCF7 cells (UniProt P21802); experiment: cell-based or functional assay
FGFR2 receptor endogenously expressed on mammary adenocarcinoma MCF7 cells, sequence (P21802 22-821): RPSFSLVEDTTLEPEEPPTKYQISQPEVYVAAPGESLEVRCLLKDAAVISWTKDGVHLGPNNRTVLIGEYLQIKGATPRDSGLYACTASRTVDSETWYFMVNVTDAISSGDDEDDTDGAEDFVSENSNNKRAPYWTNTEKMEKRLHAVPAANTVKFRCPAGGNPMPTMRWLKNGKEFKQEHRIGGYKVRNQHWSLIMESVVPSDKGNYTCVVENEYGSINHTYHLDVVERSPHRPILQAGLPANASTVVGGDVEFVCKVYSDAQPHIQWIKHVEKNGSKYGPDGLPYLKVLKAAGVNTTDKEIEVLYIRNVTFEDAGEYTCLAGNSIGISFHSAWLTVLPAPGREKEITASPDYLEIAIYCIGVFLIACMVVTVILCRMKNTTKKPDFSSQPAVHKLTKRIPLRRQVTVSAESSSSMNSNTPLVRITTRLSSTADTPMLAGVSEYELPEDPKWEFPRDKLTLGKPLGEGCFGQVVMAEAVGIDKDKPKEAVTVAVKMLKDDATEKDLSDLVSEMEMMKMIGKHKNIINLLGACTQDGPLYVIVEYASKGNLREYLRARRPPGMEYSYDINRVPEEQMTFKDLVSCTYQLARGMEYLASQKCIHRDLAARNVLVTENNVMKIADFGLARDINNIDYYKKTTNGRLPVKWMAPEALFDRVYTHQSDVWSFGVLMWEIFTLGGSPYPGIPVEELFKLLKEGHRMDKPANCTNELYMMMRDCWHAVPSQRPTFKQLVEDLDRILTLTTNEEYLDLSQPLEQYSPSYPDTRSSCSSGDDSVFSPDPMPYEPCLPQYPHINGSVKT

Row | ED50, proliferation of 4MBr-5 cells (resazurin) [1] [ng/mL] | ED50, proliferation of lung epithelial 4MBr-5 cells (resazurin) [1] [ng/mL] | ED50 (ng/mL) determined using 4MBr-5 cells; no preincubation (control) [1] [ng/mL] | ED50 (ng/mL) determined using 4MBr-5 cells; protein preincubated at 37° C. for 1 day [1] [ng/mL] | ED50 (ng/mL) determined using 4MBr-5 cells; protein preincubated at 37° C. for 3 days [1] [ng/mL] | ED50 (ng/mL) determined using 4MBr-5 cells; protein preincubated at 37° C. for 7 days [1] [ng/mL] | pKrox24 (MapERK)-DsRed reporter induction in MCF7 cells, 100 ng/mL, 24 hr (times, against FGF10-wt) [2] | Substance
1 | – | 1.4 | – | – | – | – | – | FGF10 single-point mutant L152F (ligand)
2 | 0.21 | – | 0.37 | 1 | 0.26 | 11.1 | 2.5 | FGF10-STAB (4-point mutant of FGF10: V123I+L152F+Q175E+N181D) (ligand)
3 | – | 0.8 | 0.95 | 12.5 | 21.1 | 34.8 | – | FGF10-wt (recombinant mature human FGF10, Leu40-Ser208, with N-terminal His-tag and thrombin cleavage site) (ligand)

Second part, the substance before the results:

Row | Substance | ED50, proliferation of 4MBr-5 cells (resazurin) [1] [ng/mL] | ED50, proliferation of lung epithelial 4MBr-5 cells (resazurin) [1] [ng/mL] | ED50 (ng/mL) determined using 4MBr-5 cells; no preincubation (control) [1] [ng/mL] | ED50 (ng/mL) determined using 4MBr-5 cells; protein preincubated at 37° C. for 1 day [1] [ng/mL] | ED50 (ng/mL) determined using 4MBr-5 cells; protein preincubated at 37° C. for 3 days [1] [ng/mL] | ED50 (ng/mL) determined using 4MBr-5 cells; protein preincubated at 37° C. for 7 days [1] [ng/mL] | pKrox24 (MapERK)-DsRed reporter induction in MCF7 cells, 100 ng/mL, 24 hr (times, against FGF10-wt) [2]
4 | FGF10 from Falco peregrinus (FGF10-Fp) (ligand) | 12.7 | – | – | – | – | – | –
5 | FGF10-Fp+L152F (single point variant of FGF10-Fp) (ligand) | 6.1 | – | – | – | – | – | –
6 | FGF10^69-208+L152F (ligand) | 1.9 | – | – | – | – | – | –

Reference: patent publication US20250353888A1
